According to patent US20260234738A1 (Regeneron, published 2026):

Target: SARS-COV-2 RBD extracellular domain expressed with a C-terminal mouse IgG2a (SARS-CoV-2)

B1: mAb10939 (antibody, V domains shown)
VH: EVQLVESGGGLVQPGGSLRLSCAASGLTVSSNYMNWVRQVPGKGLEWVSVIYSGGSKFYVDSVKGRFTISRHNSKNTLYLQMNSLRPEDTAVYYCTRDAQYYGMDVWGQGTTVTVSS
VL: DIQMTQSPSSLSASVGDRVTITCRASQSISTYLHWYQQKPGEAPKLLIYAASSLQSGVPSRFSGSGSGTDFTLTISSLQPEDFATYYCQQSYSTPPEIFGQGTKLEIKR
With B1 the Kd was 0.0387 nM, the koff was 1.15e-05 s⁻¹ and the kon was 299000 M⁻¹ s⁻¹. It also gave a t½ of 16.7 h.

B2: mAb10936 (antibody, V domains shown)
VH: QVQLVESGGGVVQPGRSLRLSCAASGFTFRNYGMHWVRQAPGKGLEWVSVIWYDGSNRYYADSVKGRFTISRDTSKNTLYLQMNSLRAEDTAVYYCARDPPITGTTGGDAFDIWGQGTMVTVSS
VL: not shown
Binder B2 has a Kd of no more than 0.0153 nM, a koff of no more than 1e-05 s⁻¹ and a kon of 652000 M⁻¹ s⁻¹. For the same binder, the t½ was no less than 19.2 h.

B3: mAb10934 (antibody, V domains shown)
VH: not shown
VL: DIQMTQSPSSLSASVGDRVTITCQASQDIWNYINWYQQKPGKAPKLLIYDASNLKTGVPSRFSGSGSGTDFTFTISSLQPEDIATYYCQQHDDLPPTFGQGTKVEIKR
B3 gave a Kd of 0.0832 nM and a t½ of 1.64 h.

B4: mAb10938 (antibody, V domains shown)
VH: EVQLVESGGGLVQPGGSLRLSCAVSGFTVSSNYMSWVRQAPGKGLEWVSLIYSGGSTFYADSVKGRFTISRHNSKNTLYLQMNSLRAEDTAVYYCAREGGYSYDYNYWGQGTLVTVSS
VL: DIQMTQSPSSLSASVGDRVTITCQASQDIRNYLNWYQQKPGKAPKLLIYDASNLETGVPSRFSGIGSGTDFTFTISSLQPEDIATYYCQQYDNLPITFGQGTRLEIKR
B4 showed a Kd of no more than 0.0322 nM and a t½ of no less than 19.2 h.

B5: mAb10954 (antibody, V domains shown)
VH: EVQLVESGGGLVQPGGSLRLSCAASGITVSSNYMSWVRQAPGKGLEWVSLIYSGGSTYYADSVKGRFTISRDNSKNTLYLQMNSLRVEDTAVYYCARDHGMAAAGYNYWGQGTLVTVSS
VL: DIQMTQSPSSLSASVGDRVTITCQASQDINKYLNWYQQKPGKAPKLLIYDASNLETGVPSRFSGSGSGTDFTFTINSLQPEDFATYFCQQYDNLPPAFGQGTKVEIKR
Work on B5 yielded a Kd of no more than 0.0173 nM and a t½ of no less than 19.2 h.

B6: mAb10967 (antibody, V domains shown)
VH: EVQLVESGGGLVQPGGSLRLSCAASGFTVSSNYMSWVRQAPGKGLEWVSVIYPGGSTFYADSVKGRFTISRDNSKNTLYLQMNSLRAEDTAVYYCARDQRDFAWGQGTLVTVSS
VL: DIQMTQSPSSLSASVGDRVTITCQASQDISNYLNWYQQKPGKAPKLLIYDASNLETGVPSRFSGSGSGTDFTFTISGLQPEDIATYYCQQYDNLPPTFGQGTRLEIKR
In the case of B6, the Kd is reported as no more than 0.0251 nM and the t½ is reported as no less than 19.2 h.

B7: mAb10935 (antibody, V domains shown)
VH: EVQLVESGGGLVQPGGSLRLSCAASGFTVSSNYMSWVRQAPGKGLEWVSLIYSGGSTYYADSVKGRFTISRHNSKNTLYLQMNSLRSEDTAVYYCARVPLGDYYYGMDVWGQGTTVTVSS
VL: DIQMTQSPSSLSASVGDRVTITCQASQDINKYLNWYQQKPGKAPKLLIYDASNLETGVPSRFSGSGSGTDFTFTISSLQPEDIATYYCQQSDNLPLTFGGGTKVEIKR
B7 showed a Kd of no more than 0.0261 nM, a koff of no more than 1e-05 s⁻¹ and a kon of 383000 M⁻¹ s⁻¹. It also gave a t½ of no less than 19.2 h.

B8: mAb10932 (antibody, V domains shown)
VH: EVQLVESGGGLVQSGGSLRLSCAASGLTVSSNYMSWVRQAPGKGLEWVSVIYSGGSTFYSDSVKGRFTISRHNSKNTLYLQMNSLRAEDTAVYYCARARGDAFDIWGQGTMVTVSS
VL: not shown
Work on B8 yielded a Kd of no more than 0.0413 nM, a koff of no more than 1e-05 s⁻¹ and a kon of 242000 M⁻¹ s⁻¹. For the same binder, the t½ was no less than 19.2 h.

B9: mAb10971 (antibody, V domains shown)
VH: EVQLVESGGGLIQPGGSLRLSCAASGVTVSSNYMSWVRQAPGKGLEWVSVIYSGGSTFYSDSVKGRFSISRDNSKNTLYLQMNSLRAEDTAVYYCARDLYYYGMDVWGQGTTVTVSS
VL: DIQLTQSPSFLSASVGDRVTITCRASQGISTYLAWYQQKPGKAPKLLIYAASTLQSGVPSRFSGSGSGTEFTLTISSLQPEDFATYYCQQLDSYPGLTFGGGTKVEIKR
In the case of B9, the Kd is reported as no more than 0.0253 nM, the koff is reported as no more than 1e-05 s⁻¹ and the kon is reported as 395000 M⁻¹ s⁻¹. The t½ was no less than 19.2 h.

B10: mAb10964 (antibody, V domains shown)
VH: QVQLQESGPGLVKPSETLSLTCTVSGGSINNYYWIWIRQPPGKGLEWIGYIYHSGSTNYNPSLKSRVTISVDTSKNQFSLKVSSVTAADTAVYYCANMVRGVYEDDYWGQGTLVTVSS
VL: DIQMTQSPSSLSASVGDRVTITCRASQSISNYLNWYQQKPGKAPKLLIFAASSLRSGVPSRFSGSGSGTDFTLTISSLHPEDFATYYCQQNYNTPLTFGPGTKVDIKR
Work on B10 yielded a Kd of no more than 0.007 nM and a t½ of no less than 19.2 h.

B11: mAb10989 (antibody, V domains shown)
VH: QVQLVQSGAEVKKPGASVKVSCKASGYIFTGYYMHWVRQAPGQGLEWMGWINPNSGGANYAQKFQGRVTLTRDTSITTVYMELSRLRFDDTAVYYCARGSRYDWNQNNWFDPWGQGTLVTVSS
VL: QSALTQPASVSGSPGQSITISCTGTSSDVGTYNYVSWYQQHPGKAPKLMIFDVSNRPSGVSDRFSGSKSGNTASLTISGLQAEDEADYYCSSFTTSSTVVFGGGTKLTVLG
Work on B11 yielded a t½ of 2.07 h.

B12: mAb10920 (antibody, V domains shown)
VH: QVQLVESGGGVVQPGRSLRLSCAASGFTFSYYGMHWVRQAPGKGLEWVAVIWYDGSNKFYADSVKGRFTISRDNSKNTLYLQMNSLRAEDTAVYYCAAARPGYYYGMDVWGQGTTVTVSS
VL: DIQMTQSPSSLSASVGDRVTITCRASQGISNYLAWFQQKPGKAPNSLIYAASSLQRGVPSKFSGSGSGTDFTLTISSLQPEDFATYYCQQYNSYPRTFGQGTKVEIKR
B12 was tested, and the Kd was 0.416 nM and the t½ was 0.658 h.

B13: mAb10930 (antibody, V domains shown)
VH: EVQLVESGGGLVQPGRSLRLSCAASGFTFDDYAMYWVRQAPGKGLEWVSGISWNSGSIGYADSVKGRFTISRDNAKNSLYLQMNSLRAADTALYYCAKDKDWNSRGYYYYGMDVWGQGTTVTVSS
VL: not shown
Work on B13 yielded a Kd of no more than 0.0431 nM, a koff of no more than 1e-05 s⁻¹ and a kon of 232000 M⁻¹ s⁻¹. The t½ was no less than 19.2 h.

B14: mAb10923 (antibody, V domains shown)
VH: QVQLVQSGAEVKKPGASVKVSCKASGYTFINYYIHWVRQAPGQGLEWMGWINPNSGGTNYAQKFQGRVTMTRDTSISTAYMELSRLRSDDTAVYYCAIITIFGVVTWFDPWGQGTLVTVSS
VL: not shown
With B14 the Kd was 0.0435 nM, the koff was 2.83e-05 s⁻¹ and the kon was 651000 M⁻¹ s⁻¹. The t½ was 6.79 h.

B15: mAb10921 (antibody, V domains shown)
VH: EVQLVESGGGLVQPGGSLRLSCAASGITVSSNYMSWVRQAPGKGLEWVSVIYSGGSTFYADSVKGRFTISRHNSKNTLYLQMNSLRAEDTAVYYCARERNFDAFDIWGQGTMVTVSS
VL: DIQMTQSPSSVSASVGDRVTITCRASQGISSWLAWYQQKPGKAPKLLIYAASSLQSGVPSRFSGSGSGTDFTLTISSLQPEDFATYYCQQANSFPLFTFGPGTKVDIKR
With B15 the Kd was no more than 0.0375 nM, the koff was no more than 1e-05 s⁻¹ and the t½ was no less than 19.2 h.

B16: mAb10966 (antibody, V domains shown)
VH: EVQLVESGGGLVQPGGSLRLSCAASGLTVSSNYMSWVRQAPGKGLEWVSVIYSGGSTFYADSVKGRFTISRDNSKNTLYLQMNSLRPEDTAVYYCAREGRIAATGYGMDVWGQGTTVTVSS
VL: not shown
With B16 the Kd was no more than 0.0249 nM and the t½ was no less than 19.2 h.

B17: mAb10982 (antibody, V domains shown)
VH: EVQLVESGGGLVQPGGSLRLSCAASGLTVSSNYMSWVRQAPGKGLEWVSVIYSGGTTYYADSVKGRFTISRHNSKNTLSLQMNSLRAEDTAVYYCARGEGANYYGMDVWGQGTTVTVSS
VL: QSVLTQPPSVSGAPGQRVTISCTGSSSNIGTGYDVHWYQQLPGTAPKLLIYGNSNRPSGVPDRFSGSKSGTSASLAITGLQAEDEADYYCQSYDSSLSGYVVFGGGTKLTVLG
For B17, the Kd was 0.0544 nM, the koff was 1.69e-05 s⁻¹ and the kon was 310000 M⁻¹ s⁻¹. For the same binder, the t½ was 11.4 h.

B18: mAb10985 (antibody, V domains shown)
VH: EVQLVESGGGLVQPGRSLRLSCAASGFTFDDYAMHWVRQAPGKGLEWVSGISWNRGSIGYADSVKGRFTISRDNAKNSLYLQMSSLRAEDTALYYCAKDGERWDSVVVPSARNGMDVWGQGTTVTVSS
VL: QSVLTQPPSVSGAPGQRVTISCTGSSSNIGAGYDVHWYQQLPGTAPKLLIYGNSNRPSGVPDRFSGSKSGTSASLAITGLQAEDEADYYCQSYDSSLSGSYVFGTGTKVTVLG
For B18, the Kd was 0.0117 nM and the t½ was 15.2 h.

B19: mAb10986 (antibody, V domains shown)
VH: EVQLVESGGGLVQPGGSLRLSCAASEFTVSSNYMSWVRQAPGKGLEWVSVIYSGGSTFYADSVKGRFTISRDNSKNTLYLQMNSLRAEDTAVYYCARALPYGDLHFDYWGQGTLVTVSS
VL: QSVLTQPPSVSGAPGQRVTISCTGSSSNIGTGYDVHWYQQLPGTAPKLLIYGNTNRPSGVPDRFSGSKSGTSASLAITGLQAEDEADYYCQSYDSSLSDSYVFGTGTKVTVLG
B19 gave a Kd of no more than 0.0158 nM and a t½ of no less than 19.2 h.

B20: mAb10984 (antibody, V domains shown)
VH: EVQLVESGGGLVQPGGSLRLSCAASGLTVNRNYMSWVRQAPGKGLEWVSLIYSGGSTYYADSVKGRFTISRDNSKNTLYLQMNSLRLEDTAVYYCARGELGIPYGMDVWGQGTTVTVSS
VL: QSVLTQPPSVSAAPGQKVTISCSGSSSNIGNNYVSWYQQLPGTAPKLLIYDNNKRPSGIPDRFSGSKSGTSATLGITGLQTGDEADYYCGTWDSSLSAGVFGGGTKLTVLG
In the case of B20, the Kd is reported as no more than 0.0249 nM and the t½ is reported as no less than 19.2 h.

B21: mAb10937 (antibody, V domains shown)
VH: QITLKESGPTLVKPTQTLTLTCTFSGFSLSTNVVGVGWIRQPPGKALEWLALIYWNDDKRYSPSLKSRLTITKDTSKNQVVLTMTNMDPVDTATYYCAHGPTGDYFDYWGQGTLVTVSS
VL: not shown
For B21, the Kd was 0.114 nM, the koff was 7.28e-05 s⁻¹ and the kon was 639000 M⁻¹ s⁻¹. It also gave a t½ of 2.64 h.

B22: mAb10913 (antibody, V domains shown)
VH: EVQLVESGGGLVQPGGSLRLSCAASGFTFRNYEMNWVRQAPGKGLEWVSYITSSGSTMYYADSVKGRFTISRDNAKNSLYLQMNSLRAEDTAVYYCARDGFYYYYAMDVWGQGTTVTVSS
VL: QSVLTQPPSVSAAPGQKVTISCSGSSSNIGNNYVSWYQQLPGTAPKLLIYDNNKRPSGIPDRFSGSKSGTSATLGITGLQTGDEADYYCGTWDSSLSVGRVFGTGTKVTVLG
B22 showed a Kd of 0.244 nM, a koff of 0.000152 s⁻¹ and a kon of 623000 M⁻¹ s⁻¹. It also gave a t½ of 1.27 h.
